In US20110008841A1:

Assays:
[1] = molecular target: huIL-17RA-FLAG-polyHis (human) (UniProt Q96F46); experiment: Luminex binning; huIgG on bead 72 as capture, 2nd mAb J [D00012 FIG. 16B]
[2] = molecular target: huIL-17RA-FLAG-polyHis (human) (UniProt Q96F46); experiment: Luminex binning; huIgG on bead 72 as capture, 2nd mAb E [D00012 FIG. 16B]
[3] = molecular target: huIL-17RA-FLAG-polyHis (human) (UniProt Q96F46); experiment: Luminex binning; huIgG on bead 72 as capture, 2nd mAb B [D00012 FIG. 16B]
[4] = molecular target: huIL-17RA-FLAG-polyHis (human) (UniProt Q96F46); experiment: Luminex binning; huIgG on bead 72 as capture, 2nd mAb N [D00012 FIG. 16B]
[5] = molecular target: huIL-17RA-FLAG-polyHis (human) (UniProt Q96F46); experiment: Luminex binning; huIgG on bead 72 as capture, 2nd mAb Q [D00012 FIG. 16B]
[6] = molecular target: huIL-17RA-FLAG-polyHis (human) (UniProt Q96F46); experiment: Luminex binning; huIgG on bead 72 as capture, 2nd mAb M [D00012 FIG. 16B]
[7] = molecular target: huIL-17RA-FLAG-polyHis (human) (UniProt Q96F46); experiment: Luminex binning; huIgG on bead 72 as capture, 2nd mAb R [D00012 FIG. 16B]
[8] = molecular target: huIL-17RA-FLAG-polyHis (human) (UniProt Q96F46); experiment: Luminex binning; huIgG on bead 72 as capture, 2nd mAb A [D00012 FIG. 16B]
[9] = molecular target: huIL-17RA-FLAG-polyHis (human) (UniProt Q96F46); experiment: Luminex binning; huIgG on bead 72 as capture, 2nd mAb C [D00012 FIG. 16B]
[10] = molecular target: huIL-17RA-FLAG-polyHis (human) (UniProt Q96F46); experiment: Luminex binning; huIgG on bead 72 as capture, 2nd mAb K [D00012 FIG. 16B]
[11] = molecular target: huIL-17RA-FLAG-polyHis (human) (UniProt Q96F46); experiment: Luminex binning; huIgG on bead 72 as capture, 2nd mAb I [D00012 FIG. 16B]
[12] = molecular target: huIL-17RA-FLAG-polyHis (human) (UniProt Q96F46); experiment: Luminex binning; huIgG on bead 72 as capture, 2nd mAb L [D00012 FIG. 16B]
[13] = molecular target: huIL-17RA-FLAG-polyHis (human) (UniProt Q96F46); experiment: Luminex binning; huIgG on bead 72 as capture, 2nd mAb F [D00012 FIG. 16B]
[14] = molecular target: huIL-17RA-FLAG-polyHis (human) (UniProt Q96F46); experiment: Luminex binning; huIgG on bead 72 as capture, 2nd mAb O [D00012 FIG. 16B]
[15] = molecular target: huIL-17RA-FLAG-polyHis (human) (UniProt Q96F46); experiment: Luminex binning; huIgG on bead 72 as capture, 2nd mAb D [D00012 FIG. 16B]

huIgG (antibody)
normalized MFI [1]: 35
normalized MFI [2]: 26
normalized MFI [3]: 37
normalized MFI [4]: 56
normalized MFI [5]: 28
normalized MFI [6]: 32
normalized MFI [7]: 50
normalized MFI [8]: 84
normalized MFI [9]: 54
normalized MFI [10]: 100
normalized MFI [11]: 22
normalized MFI [12]: 34
normalized MFI [13]: 140
normalized MFI [14]: 95
normalized MFI [15]: 123
